# Numbering of substitutions follows the chain as printed.
# B1: BAP049-hum10 (antibody, human IgG4 S228P, kappa)
# heavy: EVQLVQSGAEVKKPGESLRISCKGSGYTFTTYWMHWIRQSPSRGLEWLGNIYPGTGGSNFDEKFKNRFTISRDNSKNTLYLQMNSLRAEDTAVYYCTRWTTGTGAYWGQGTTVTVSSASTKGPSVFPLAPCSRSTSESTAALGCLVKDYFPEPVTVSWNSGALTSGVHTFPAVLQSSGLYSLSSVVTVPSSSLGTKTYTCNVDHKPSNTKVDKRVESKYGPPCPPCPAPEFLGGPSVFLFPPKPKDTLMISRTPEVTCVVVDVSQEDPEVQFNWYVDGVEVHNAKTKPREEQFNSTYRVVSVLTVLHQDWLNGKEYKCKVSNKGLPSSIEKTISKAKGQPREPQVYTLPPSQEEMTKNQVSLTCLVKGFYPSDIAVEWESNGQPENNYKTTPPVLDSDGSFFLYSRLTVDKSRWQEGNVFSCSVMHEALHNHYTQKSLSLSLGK
# light: EIVLTQSPATLSLSPGERATLSCKSSQSLLDSGNQKNFLTWYQQKPGQAPRLLIYWASTRESGVPSRFSGSGSGTDFTFTISSLEAEDAATYYCQNDYSYPYTFGQGTKVEIKRTVAAPSVFIFPPSDEQLKSGTASVVCLLNNFYPREAKVQWKVDNALQSGNSQESVTEQDSKDSTYSLSSTLTLSKADYEKHKVYACEVTHQGLSSPVTKSFNRGEC
# notes: Humanized mAb
# B2: BAP049-hum01 (antibody, human IgG4 S228P, kappa, V domains shown)
# VH: EVQLVQSGAEVKKPGESLRISCKGSGYTFTTYWMHWVRQATGQGLEWMGNIYPGTGGSNFDEKFKNRVTITADKSTSTAYMELSSLRSEDTAVYYCTRWTTGTGAYWGQGTTVTVSS
# VL: EIVLTQSPATLSLSPGERATLSCKSSQSLLDSGNQKNFLTWYQQKPGQAPRLLIYWASTRESGVPSRFSGSGSGTEFTLTISSLQPDDFATYYCQNDYSYPYTFGQGTKVEIKR
# notes: Humanized mAb
# B3: BAP049-hum05 (antibody, human IgG4 S228P, kappa, V domains shown)
# VH: B2 VH
# VL: B2 VL with Q48K, R51K, E76D, L79F, D87E, F89I
# notes: Humanized mAb
# B4: Chi mAb (Tyr) (antibody, human IgG4 S228P, kappa, V domains shown)
# VH: QVQLQQSGSELVRPGASVKLSCKASGYTFTTYWMHWVRQRPGQGLEWIGNIYPGTGGSNFDEKFKNRTSLTVDTSSTTAYMHLASLTSEDSAVYYCTRWTTGTGAYWGQGTTVTVSS
# VL: DIVMTQSPSSLTVTAGEKVTMSCKSSQSLLDSGNQKNFLTWYQQKPGQPPKLLIFWASTRESGVPDRFTGSGSVTDFTLTISSVQAEDLAVYYCQNDYSYPYTFGQGTKVEIKR
# notes: also called BAP049-chi-Y; Chi (Tyr)
# B5: murine anti-PD-1 mAb BAP049 (antibody, V domains shown)
# VH: B4 VH with T112L, S117A
# VL: DIVMTQSPSSLTVTAGEKVTMSCKSSQSLLDSGNQKNFLTWYQQKPGQPPKLLIFWASTRESGVPDRFTGSGSVTDFTLTISSVQAEDLAVYYCQNDYSYPCTFGGGTKLEIK
# notes: the murine constant regions are not described; also called Mu mAb; murine mAb BAP049
# B6: BAP049-hum04 (antibody, human IgG4 S228P, kappa, V domains shown)
# VH: EVQLVQSGAEVKKPGESLRISCKGSGYTFTTYWMHWIRQSPSRGLEWLGNIYPGTGGSNFDEKFKNRFTISRDNSKNTLYLQMNSLRAEDTAVYYCTRWTTGTGAYWGQGTTVTVSS
# VL: B2 VL with Q48K, R51K, E76D, L79F, D87E, F89I
# notes: also called Clone No. 4
# B7: BAP049-hum14 (antibody, human IgG4 S228P, kappa)
# heavy chain: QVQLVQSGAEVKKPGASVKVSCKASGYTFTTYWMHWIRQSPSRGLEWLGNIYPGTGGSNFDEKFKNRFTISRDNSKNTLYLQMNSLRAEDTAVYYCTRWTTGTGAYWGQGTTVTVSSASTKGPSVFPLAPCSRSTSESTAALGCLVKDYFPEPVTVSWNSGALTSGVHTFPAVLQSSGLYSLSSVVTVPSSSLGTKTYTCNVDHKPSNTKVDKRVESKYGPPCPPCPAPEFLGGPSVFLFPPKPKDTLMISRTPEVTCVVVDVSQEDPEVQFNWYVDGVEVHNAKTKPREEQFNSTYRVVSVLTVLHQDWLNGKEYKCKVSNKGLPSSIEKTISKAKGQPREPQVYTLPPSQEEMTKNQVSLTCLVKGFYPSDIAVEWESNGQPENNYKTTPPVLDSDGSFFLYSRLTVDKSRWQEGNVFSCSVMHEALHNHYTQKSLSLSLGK
# light chain: B1 light
# notes: also called Clone No. 14
# B8: BAP049-hum11 (antibody, human IgG4 S228P, kappa)
# heavy: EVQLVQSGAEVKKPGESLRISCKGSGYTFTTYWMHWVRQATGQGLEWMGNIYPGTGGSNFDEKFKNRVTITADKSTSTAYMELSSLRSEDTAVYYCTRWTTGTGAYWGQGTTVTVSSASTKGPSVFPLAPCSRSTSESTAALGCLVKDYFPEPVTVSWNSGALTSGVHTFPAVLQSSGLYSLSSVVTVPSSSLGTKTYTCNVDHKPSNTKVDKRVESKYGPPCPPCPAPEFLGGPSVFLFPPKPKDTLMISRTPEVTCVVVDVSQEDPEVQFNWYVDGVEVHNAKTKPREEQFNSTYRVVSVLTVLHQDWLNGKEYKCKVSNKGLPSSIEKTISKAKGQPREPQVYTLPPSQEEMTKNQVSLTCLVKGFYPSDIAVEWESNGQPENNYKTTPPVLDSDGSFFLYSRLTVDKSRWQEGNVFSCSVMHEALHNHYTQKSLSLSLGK
# light: B1 light
# notes: Humanized mAb
# B9: BAP049-hum06 (antibody, human IgG4 S228P, kappa)
# heavy chain: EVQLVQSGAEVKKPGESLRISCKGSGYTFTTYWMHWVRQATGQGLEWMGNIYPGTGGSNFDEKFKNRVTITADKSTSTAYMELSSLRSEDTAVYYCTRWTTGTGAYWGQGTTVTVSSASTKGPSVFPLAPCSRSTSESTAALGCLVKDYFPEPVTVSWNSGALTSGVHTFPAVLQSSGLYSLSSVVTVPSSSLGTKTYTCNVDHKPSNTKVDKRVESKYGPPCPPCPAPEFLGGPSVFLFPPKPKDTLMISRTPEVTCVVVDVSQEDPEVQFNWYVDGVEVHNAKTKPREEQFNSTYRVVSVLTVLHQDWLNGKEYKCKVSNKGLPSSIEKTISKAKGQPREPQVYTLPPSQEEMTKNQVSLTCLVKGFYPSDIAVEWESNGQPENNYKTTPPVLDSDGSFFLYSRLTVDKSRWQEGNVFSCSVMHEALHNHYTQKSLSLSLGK
# light chain: DIVMTQTPLSLPVTPGEPASISCKSSQSLLDSGNQKNFLTWYQQKPGQAPRLLIYWASTRESGVPSRFSGSGSGTDFTFTISSLEAEDAATYYCQNDYSYPYTFGQGTKVEIKRTVAAPSVFIFPPSDEQLKSGTASVVCLLNNFYPREAKVQWKVDNALQSGNSQESVTEQDSKDSTYSLSSTLTLSKADYEKHKVYACEVTHQGLSSPVTKSFNRGEC
# notes: also called Clone No. 6
# B10: BAP049-hum07 (antibody, human IgG4 S228P, kappa)
# heavy chain: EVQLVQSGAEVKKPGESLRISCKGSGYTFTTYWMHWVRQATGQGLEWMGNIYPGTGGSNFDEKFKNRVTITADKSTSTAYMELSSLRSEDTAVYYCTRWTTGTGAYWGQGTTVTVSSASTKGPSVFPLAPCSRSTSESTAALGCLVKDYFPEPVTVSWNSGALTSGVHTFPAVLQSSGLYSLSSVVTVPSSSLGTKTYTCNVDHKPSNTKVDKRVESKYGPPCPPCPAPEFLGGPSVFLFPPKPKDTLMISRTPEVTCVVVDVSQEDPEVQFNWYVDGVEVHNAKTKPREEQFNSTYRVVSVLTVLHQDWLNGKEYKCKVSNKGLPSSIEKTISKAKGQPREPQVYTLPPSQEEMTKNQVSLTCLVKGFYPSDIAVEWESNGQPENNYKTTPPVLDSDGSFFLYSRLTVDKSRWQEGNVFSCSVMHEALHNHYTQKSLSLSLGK
# light chain: B1 light with Q48K, R51K
# notes: also called Clone No. 7
# B11: BAP049-hum09 (antibody, human IgG4 S228P, kappa)
# heavy: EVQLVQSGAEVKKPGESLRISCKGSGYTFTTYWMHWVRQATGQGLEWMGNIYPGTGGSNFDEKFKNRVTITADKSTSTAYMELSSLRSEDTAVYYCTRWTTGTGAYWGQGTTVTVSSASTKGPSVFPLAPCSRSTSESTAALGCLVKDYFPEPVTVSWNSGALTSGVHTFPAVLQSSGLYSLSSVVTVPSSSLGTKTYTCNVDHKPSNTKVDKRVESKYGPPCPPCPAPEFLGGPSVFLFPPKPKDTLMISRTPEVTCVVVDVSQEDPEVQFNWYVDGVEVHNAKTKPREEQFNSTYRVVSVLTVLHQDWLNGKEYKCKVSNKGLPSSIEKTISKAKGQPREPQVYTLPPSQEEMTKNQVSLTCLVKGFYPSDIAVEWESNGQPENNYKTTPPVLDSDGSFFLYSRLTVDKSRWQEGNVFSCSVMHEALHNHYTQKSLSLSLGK
# light: B1 light with A9D, T10F, L11Q, L13V, S14T, G16K, R18K, A19V, L21I, S22T
# notes: Humanized mAb
# B12: BAP049-hum12 (antibody, human IgG4 S228P, kappa, V domains shown)
# VH: B2 VH
# VL: DIQMTQSPSSLSASVGDRVTITCKSSQSLLDSGNQKNFLTWYLQKPGQSPQLLIYWASTRESGVPSRFSGSGSGTDFTFTISSLEAEDAATYYCQNDYSYPYTFGQGTKVEIKR
# notes: also called Clone No. 12
# B13: BAP049-hum13 (antibody, human IgG4 S228P, kappa)
# heavy chain: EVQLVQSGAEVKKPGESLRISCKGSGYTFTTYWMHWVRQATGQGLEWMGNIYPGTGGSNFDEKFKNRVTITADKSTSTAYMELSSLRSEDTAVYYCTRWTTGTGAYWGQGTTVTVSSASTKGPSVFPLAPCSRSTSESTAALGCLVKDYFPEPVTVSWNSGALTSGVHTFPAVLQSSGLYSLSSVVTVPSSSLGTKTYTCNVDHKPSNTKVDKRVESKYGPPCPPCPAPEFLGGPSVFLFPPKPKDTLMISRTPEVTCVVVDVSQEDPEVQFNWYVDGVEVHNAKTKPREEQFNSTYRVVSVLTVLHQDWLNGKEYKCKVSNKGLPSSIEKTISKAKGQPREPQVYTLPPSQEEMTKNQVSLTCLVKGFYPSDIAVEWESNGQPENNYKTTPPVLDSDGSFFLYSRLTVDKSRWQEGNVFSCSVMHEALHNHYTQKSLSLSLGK
# light chain: B9 light chain with I2V, T7S, P15L, E17Q, Q48K, R51K
# notes: also called Clone No. 13
# B14: BAP049-hum08 (antibody, human IgG4 S228P, kappa)
# heavy: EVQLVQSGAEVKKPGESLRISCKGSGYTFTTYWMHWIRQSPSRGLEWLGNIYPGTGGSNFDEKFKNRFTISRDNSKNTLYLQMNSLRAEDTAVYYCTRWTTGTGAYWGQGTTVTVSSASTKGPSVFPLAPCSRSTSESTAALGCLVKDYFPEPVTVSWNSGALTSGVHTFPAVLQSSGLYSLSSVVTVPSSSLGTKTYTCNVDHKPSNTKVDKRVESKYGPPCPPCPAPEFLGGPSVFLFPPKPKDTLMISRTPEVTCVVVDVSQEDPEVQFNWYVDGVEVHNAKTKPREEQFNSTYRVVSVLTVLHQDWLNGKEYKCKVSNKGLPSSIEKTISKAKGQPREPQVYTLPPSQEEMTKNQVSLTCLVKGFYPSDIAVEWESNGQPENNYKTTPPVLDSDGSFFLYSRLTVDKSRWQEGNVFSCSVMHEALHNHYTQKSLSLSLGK
# light: B1 light with A9D, T10F, L11Q, L13V, S14T, G16K, R18K, A19V, L21I, S22T
# notes: Humanized mAb
# B15: BAP049-hum15 (antibody, human IgG4 S228P, kappa)
# heavy chain: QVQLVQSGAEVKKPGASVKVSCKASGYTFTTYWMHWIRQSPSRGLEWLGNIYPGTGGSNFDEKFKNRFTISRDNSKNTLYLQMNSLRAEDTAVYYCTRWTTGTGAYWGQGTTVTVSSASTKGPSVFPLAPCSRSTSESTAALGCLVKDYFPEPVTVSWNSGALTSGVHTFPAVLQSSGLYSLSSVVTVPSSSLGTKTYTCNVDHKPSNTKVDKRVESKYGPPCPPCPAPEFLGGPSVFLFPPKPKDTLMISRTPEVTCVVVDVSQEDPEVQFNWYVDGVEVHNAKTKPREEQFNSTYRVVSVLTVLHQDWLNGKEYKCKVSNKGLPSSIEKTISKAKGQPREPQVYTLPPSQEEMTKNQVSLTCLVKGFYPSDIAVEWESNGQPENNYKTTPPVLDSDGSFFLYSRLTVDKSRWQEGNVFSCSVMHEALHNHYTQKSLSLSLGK
# light chain: B1 light with A9D, T10F, L11Q, L13V, S14T, G16K, R18K, A19V, L21I, S22T
# notes: also called Clone No. 15
# B16: BAP049-hum16 (antibody, human IgG4 S228P, kappa, V domains shown)
# VH: B6 VH with I37V, S40A, S42G, R43Q, L48M
# VL: EIVLTQSPDFQSVTPKEKVTITCKSSQSLLDSGNQKNFLTWYQQKPGQAPRLLIYWASTRESGVPSRFSGSGSGTDFTFTISSLEAEDAATYYCQNDYSYPYTFGQGTKVEIKR
# notes: also called Clone No. 16
# B17: BAP049-hum02 (antibody, human IgG4 S228P, kappa, V domains shown)
# VH: B2 VH
# VL: DIQMTQSPSSLSASVGDRVTITCKSSQSLLDSGNQKNFLTWYQQKPGQAPRLLIYWASTRESGIPPRFSGSGYGTDFTLTINNIESEDAAYYFCQNDYSYPYTFGQGTKVEIKR
# notes: also called Clone No. 2
# B18: BAP049-hum03 (antibody, human IgG4 S228P, kappa, V domains shown)
# VH: B6 VH
# VL: B17 VL
# notes: also called Clone No. 3
# Target: T1, Programmed Death 1 (PD-1) (UniProt Q15116 25-167, limits assumed)
# Assay: FACS ligand blocking: mAb titrated, signal of ligand-Ig bound to PD-1; legend paragraph 46 names PD-L1-Ig and PD-L2-Ig as blocked ligands for FIG. 8A; cells not named
# T1 sequence (Q15116 25-167 limits assumed): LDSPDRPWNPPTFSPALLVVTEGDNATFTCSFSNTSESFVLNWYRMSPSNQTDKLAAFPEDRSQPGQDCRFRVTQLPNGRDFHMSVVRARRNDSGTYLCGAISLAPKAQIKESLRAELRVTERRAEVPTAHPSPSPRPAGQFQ
row,Binder,IC50 (read off the curve)
1,B1,~1 µg/mL
2,B2,~1 µg/mL
3,B3,~1 µg/mL
4,B4,~0.8 µg/mL
5,B5,~0.6 µg/mL

# Target: T1, Programmed Death 1 (PD-1)
# Assay: rank among the 16 humanized clones by FACS data (order agrees with the 200 ng/ml bars of FIGURE 4, 1 = highest)
row,Binder,Ranking FACS data
1,B1,7
2,B6,14
3,B7,16
4,B8,6
5,B2,2
6,B3,5
7,B9,1
8,B10,4
9,B11,7
10,B12,3
11,B13,6
12,B14,7
13,B15,6
14,B16,15
15,B17,6
16,B18,7

# Target: T2, PD-1 on PD-1-expressing 300.19 cells (UniProt Q15116 25-288, limits assumed)
# T2 construct: whole, on cells
# Assay: rank among the 16 humanized clones in competition binding against labeled murine mAb BAP049, 1st exp. (FIGURE 6A)
# T2 sequence (Q15116 25-288 limits assumed): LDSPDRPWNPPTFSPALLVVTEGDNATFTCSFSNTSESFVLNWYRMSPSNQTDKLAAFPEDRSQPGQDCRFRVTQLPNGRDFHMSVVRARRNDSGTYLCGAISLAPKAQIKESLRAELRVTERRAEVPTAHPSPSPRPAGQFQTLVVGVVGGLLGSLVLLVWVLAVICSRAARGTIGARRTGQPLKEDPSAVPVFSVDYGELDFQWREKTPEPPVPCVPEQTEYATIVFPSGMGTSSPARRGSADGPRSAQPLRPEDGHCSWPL
row,Binder,Competition Binding 1st exp.
1,B1,6
2,B6,15
3,B7,7
4,B8,4
5,B2,7
6,B3,5
7,B9,7
8,B10,7
9,B11,2
10,B12,8
11,B13,1
12,B14,7
13,B15,7
14,B16,16
15,B17,3
16,B18,8

# Target: T2, PD-1 on PD-1-expressing 300.19 cells
# Assay: rank among the 16 humanized clones in competition binding against labeled murine mAb BAP049, 2nd exp. (FIGURE 6B)
row,Binder,Competition Binding 2nd exp.
1,B1,> 4
2,B6,15
3,B7,15
4,B8,> 4
5,B2,2
6,B3,> 4
7,B9,3
8,B10,> 4
9,B11,4
10,B12,16
11,B13,1
12,B14,4
13,B15,15
14,B16,15
15,B17,2
16,B18,14

# From patent US20190175609A1 (Novartis, published 2019)
